According to patent US20250320291A1:

Biological target: biotinylated CD19 (UniProt P15391)
Test: yeast surface display of the scFv, flow cytometry titration of biotinylated CD19, 1:1 equilibrium binding fit, mean±SD of 3 trials

Sequence of UniProt P15391 (P15391 20-291 limits assumed): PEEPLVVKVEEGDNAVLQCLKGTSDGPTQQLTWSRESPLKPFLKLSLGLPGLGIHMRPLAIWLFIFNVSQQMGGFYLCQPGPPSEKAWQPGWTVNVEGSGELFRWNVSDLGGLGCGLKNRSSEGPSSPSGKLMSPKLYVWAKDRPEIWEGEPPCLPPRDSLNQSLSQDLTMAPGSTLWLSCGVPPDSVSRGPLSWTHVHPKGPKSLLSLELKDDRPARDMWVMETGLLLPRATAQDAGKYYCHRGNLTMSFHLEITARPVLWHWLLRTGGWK

- Kd: 4.8 nM
Substance: FMC63 parental murine anti-CD19 scFv
